Reference: PMC10148139
pKd: −log10 of the molar value.

Target: MAGE D2 MAGE homology domain (MHD), amino acids 261–521 (human) (UniProt Q9UNF1)
Assay: MST

Chain of UniProt Q9UNF1 (Q9UNF1 261-521): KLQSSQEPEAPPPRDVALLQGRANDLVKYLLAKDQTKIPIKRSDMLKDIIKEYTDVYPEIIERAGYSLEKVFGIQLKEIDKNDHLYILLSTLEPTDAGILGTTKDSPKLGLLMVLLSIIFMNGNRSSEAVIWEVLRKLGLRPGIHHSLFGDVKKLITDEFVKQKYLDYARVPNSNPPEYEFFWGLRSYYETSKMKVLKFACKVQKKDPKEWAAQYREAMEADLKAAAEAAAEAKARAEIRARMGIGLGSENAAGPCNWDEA

pKd: 6.81
Substance: Gαs AHD (amino acids 68–206), purified (from UniProt P63092-2 68-206) (domain or fragment)
